Reference: patent US20120134979A1, “METHODS AND COMPOSITIONS FOR THE TREATMENT OF SICKLE CELL DISEASE” (priority 2010, published 2012)

What was measured:
Format in all cases: in vivo, mouse
SCD Tg mice [1] = assay: Hematological parameters of SCD Tg mice treated with PEG-ADA or PSB1115 for 8 weeks; details: 8 weeks treatment
Text: Mice. Berkley sickle cell disease transgenic mice (SCD Tg mice), expressing exclusively human sickle hemoglobin (HbS) were purchased from The Jackson Laboratory Inc (Paszty, C. Transgenic and gene knock-out mouse models of sickle cell anemia and the thalassemias. Curr Opin Hematol 4, 88-93, 1997). C57BL/6 mice used as controls were purchased from Harlan Laboratories. Adenosine receptor deficient mice were obtained from the following sources: A1R-deficient mice (Jurgen Schnermann, NIDDK, NIH); A2AR-deficient mice (Jiang-Fan Chen, Boston University School of Medicine); A2BR-deficient mice (Michael R. Blackburn, University of Texas-Houston Medical School); and A3R-deficient mice (Marlene Jacobson, Merck Research Laboratories). All receptor deficient mice were backcrossed at least 10 generations onto the C57Blk/6J background and were genotyped according to established protocols (Sun, D., et al. Mediation of tubuloglomerular feedback by adenosine: evidence from mice lacking adenosine receptors. Proc Natl Acad Sci USA 98, 9983-9988, 2001; Nemeth, Z. H., et al. Adenosine receptor activation ameliorates type 1 diabetes. FASEB J, 2007; Chen, J. F., et al. A2A adenosine receptor deficiency attenuates brain injury induced by transient focal ischemia in mice. J Neurosci 19, 9192-9200, 1999; Salvatore, C. A., et al. Disruption of the A3 adenosine receptor gene in mice and its effect on stimulated inflammatory cells. The Journal of Biological Chemistry 275, 4429-4434, 2000). Animals were maintained in accordance with institutional and NIH guidelines under research protocols that were reviewed and approved by the University of Texas Health Science Center at Houston Animal Welfare Committee.
(§1) Chronic PEG-ADA therapy. SCD transgenic mice, at eight weeks of age, were divided to two groups. One group was injected with 2.5 U PEG-ADA weekly for 8 weeks. This dosing protocol was designated SCD with PEG-ADA treatment regimen (SCD+PEG-ADA). Another group was injected with normal saline for 8 weeks; it was designated as SCD without PEG-ADA treatment regimen (SCD). Wild-type mice (C57Bl/6) used as control were injected with saline or PEG-ADA as with the SCD groups.
(§2) Chronic treatment with A2BR antagonist, PSB1115. SCD transgenic mice or wild type mice (eight weeks of age) were divided to two groups, one groups was injected with 200 μg of PSB1115 (an A2B receptor antagonist: obtained from Tocris Bioscience, St. Louis, Mo.) in PBS, daily for 8 weeks. One of groups was injected with saline.
Morphological study of erythrocytes and quantification of reticulocytes by flow cytometry. Blood smears were stained using the WG16-500 ml kit (Sigma-Aldrich) for sickled cells and observed using 100× oil immersion objective of Olympus BX60 microscope. […] The percentages of sickled cells among the counted cells were calculated. Reticulocyte was labeled by Retic-COUNT Reagent (Becton Dickinson) and quantified by flow cytometry (Perumbeti, et al., A novel human gamma-globin gene vector for genetic correction of sickle cell anemia in a humanized sickle mouse model: critical determinants for successful correction. Blood. 2009; 114(6):1174-1185).

SCD Tg mice [2] = assay: Plasma adenosine levels in SCD Tg mice under weekly PEG-ADA; details: weekly injection 2.5 U/week for 8 weeks
Experimental: Adenosine Analysis. […] B., et al. Effects of (R)-deoxycoformycin (pentostatin) on intrauterine nucleoside catabolism and embryo viability in the pregnant mouse. Teratology 45, 91-103, 1992) with modifications. In brief, 500 μl of 0.6 M cold perchloric acid was added to 500 μl blood on ice, mixed using a vertex mixer and subsequently subject to sonication for 10 seconds with output 6 (W-220F, Heat Systems-Ultrasonic, Inc.). The homogenate was centrifuged at 20,000 g for 10 min at […]. The supernatant (568 μl) was transferred to a new tube and neutralized with 40.9 μl 3 M KHCO3/3.6 N KOH. Phenol red (2 μl of 0.2 mg/ml) was added as indicator. The sample was acidified with 5.7 μl of 1.8 M ammonium dihydrogen phosphate (pH 5.1) and 13.2 μl phosphoric acid (30%). Finally, the sample was centrifuged at 20,000 g for 5 min and the supernatant was transferred to a new tube and stored at −20° C. Before HPLC assay, the sample was thawed on ice, then centrifuged at 20,000 g for 10 minutes. […]

SCD Tg mice [3] = assay: Hemolytic analysis of plasma of SCD Tg mice after chronic treatment; details: chronic PEG-ADA treatment
Experimental: as §1
Hemolytic analysis. The hemoglobin, haptoglobin and total bilirubin in mouse plasma were quantified by ELISA kits following instructions provided by the vendor (BioAssay Systems, Hayword, Calif.).

SCD Tg mice [4] = assay: Organ weight, histology and heme content in SCD Tg mice after chronic treatment
Experimental: as §1, §2
Mouse organ isolation and histological analysis. Mice were anesthetized and body weight was determined. Organs were isolated and weighed. Half of each organ was quickly frozen in liquid nitrogen and then stored at −80° C. for heme content measurements as described below. The remaining half of each organ was fixed with 4% paraformaldehyde in PBS overnight at 4° C. Fixed tissues were rinsed in PBS, dehydrated through graded ethanol washes, and embedded in paraffin. 5 μm sections were collected on slides and stained with haematoxylin and eosin (H&E). Semiquantification of histological changes was analyzed by Image-Plus, Pro software.
Heme content measurement in multiple mouse tissues. Different organs were quickly removed and frozen in liquid nitrogen as described above. Heme was extracted from organs by homogenization with 1% Triton x-100 in PBS with 1× proteinase inhibitors (Roche) and the supernatant was collected following centrifugation at 20,000 g for 10 minutes at 4° C. Heme content was quantified following the instructions of QuantiChrom Heme Assay Kit (BioAssay Systems, Hayword, Calif.).

B1: PEG-ADA: polyethylene glycol-modified adenosine deaminase, a drug used to lower adenosine concentrations in ADA-deficient humans (protein, UniProt P56658 2-363, looked up)
Adenosine deaminase: AQTPAFNKPKVELHVHLDGAIKPETILYYGRKRGIALPADTPEELQNIIGMDKPLSLPEFLAKFDYYMPAIAGCREAVKRIAYEFVEMKAKDGVVYVEVRYSPHLLANSKVEPIPWNQAEGDLTPDEVVSLVNQGLQEGERDFGVKVRSILCCMRHQPSWSSEVVELCKKYREQTVVAIDLAGDETIEGSSLFPGHVKAYAEAVKSGVHRTVHAGEVGSANVVKEAVDTLKTERLGHGYHTLEDATLYNRLRQENMHFEVCPWSSYLTGAWKPDTEHPVVRFKNDQVNYSLNTDDPLIFKSTLDTDYQMTKNEMGFTEEEFKRLNINAAKSSFLPEDEKKELLDLLYKAYGMPSPASAEQCL
modifications: PEGylated
HCT (SCD Tg mice [1]): 30.15 ± 8.90 %
Hb (SCD Tg mice [1]): 7.71 ± 2.64 g/dL
MCH (SCD Tg mice [1]): 12.38 ± 2.85 pg
MCHC (SCD Tg mice [1]): 25.33 ± 1.21 g/dL
MCV (SCD Tg mice [1]): 48.58 ± 8.79 fL
RDW (SCD Tg mice [1]): 28.03 ± 1.14 %
Reticulocyte (SCD Tg mice [1]): 43 ± 4.52 %
Sickle cell (SCD Tg mice [1]): 10.35 ± 0.39 %
WBC (SCD Tg mice [1]): 15.00 ± 2.79 k/μl
RBC (SCD Tg mice [1]; mean ± SEM): 6.15 ± 1.01 M/μl
Adenosine levels in the plasma at different time points (SCD Tg mice [2]): lowered adenosine to a steady level within two weeks
plasma Hb (SCD Tg mice [3]): decreased
plasma haptoglobin (SCD Tg mice [3]): increased
total bilirubin (SCD Tg mice [3]): decreased
congestion, vascular damage and necrosis in multiple tissues (histology) (SCD Tg mice [4]; 8 weeks treatment, lung, liver, spleen (PSB1115 also kidney)): improved
heme content in lung, liver and spleen (SCD Tg mice [4]; PEG-ADA enzyme therapy): significantly decreases
microinfarction and cysts in renal cortex and congestion in renal medulla (SCD Tg mice [4]; PEG-ADA enzyme therapy): significantly improved
ratio of spleen weight to body weight (SCD Tg mice [4]; chronic treatment, untreated 4.52±0.24, p<0.05, n=8): 2.48±0.36
